Laboratory results published in patent US9416353B2, “Covalent tethering of functional groups to proteins and substrates therefor” (Promega Corporation, priority 2004, dated 2016).

B1: DhaA.WT: wild-type Rhodococcus rhodochrous dehalogenase (DhaA), generally GST at the N-terminus and FLAG at the C-terminus (protein, UniProt P0A3G2 1-293, looked up)
Haloalkane dehalogenase: MSEIGTGFPFDPHYVEVLGERMHYVDVGPRDGTPVLFLHGNPTSSYLWRNIIPHVAPSHRCIAPDLIGMGKSDKPDLDYFFDDHVRYLDAFIEALGLEEVVLVIHDWGSALGFHWAKRNPERVKGIACMEFIRPIPTWDEWPEFARETFQAFRTADVGRELIIDQNAFIEGALPKCVVRPLTEVEMDHYREPFLKPVDREPLWRFPNELPIAGEPANIVALVEAYMNWLHQSPVPKLLFWGTPGVLIPPAEAARLAESLPNCKTVDIGPGLHYLQEDNPDLIGSEIARWLPAL
modifications: N-terminal GST, C-terminal FLAG tag
B2: DhaA.H272F YL: DhaA.H272F based mutant with Y273L (protein, UniProt P0A3G2 1-293, looked up, variant H272F Y273L)
Haloalkane dehalogenase: MSEIGTGFPFDPHYVEVLGERMHYVDVGPRDGTPVLFLHGNPTSSYLWRNIIPHVAPSHRCIAPDLIGMGKSDKPDLDYFFDDHVRYLDAFIEALGLEEVVLVIHDWGSALGFHWAKRNPERVKGIACMEFIRPIPTWDEWPEFARETFQAFRTADVGRELIIDQNAFIEGALPKCVVRPLTEVEMDHYREPFLKPVDREPLWRFPNELPIAGEPANIVALVEAYMNWLHQSPVPKLLFWGTPGVLIPPAEAARLAESLPNCKTVDIGPGLFLLQEDNPDLIGSEIARWLPAL
B3: DhaA.H272F YC: DhaA.H272F based mutant with Y273C (protein, UniProt P0A3G2 1-293, looked up, variant H272F Y273C)
Haloalkane dehalogenase: MSEIGTGFPFDPHYVEVLGERMHYVDVGPRDGTPVLFLHGNPTSSYLWRNIIPHVAPSHRCIAPDLIGMGKSDKPDLDYFFDDHVRYLDAFIEALGLEEVVLVIHDWGSALGFHWAKRNPERVKGIACMEFIRPIPTWDEWPEFARETFQAFRTADVGRELIIDQNAFIEGALPKCVVRPLTEVEMDHYREPFLKPVDREPLWRFPNELPIAGEPANIVALVEAYMNWLHQSPVPKLLFWGTPGVLIPPAEAARLAESLPNCKTVDIGPGLFCLQEDNPDLIGSEIARWLPAL
B4: DhaA.H272F: DhaA mutant, catalytic His272 replaced with Phe (protein, UniProt P0A3G2 1-293, looked up, variant H272F)
Haloalkane dehalogenase: MSEIGTGFPFDPHYVEVLGERMHYVDVGPRDGTPVLFLHGNPTSSYLWRNIIPHVAPSHRCIAPDLIGMGKSDKPDLDYFFDDHVRYLDAFIEALGLEEVVLVIHDWGSALGFHWAKRNPERVKGIACMEFIRPIPTWDEWPEFARETFQAFRTADVGRELIIDQNAFIEGALPKCVVRPLTEVEMDHYREPFLKPVDREPLWRFPNELPIAGEPANIVALVEAYMNWLHQSPVPKLLFWGTPGVLIPPAEAARLAESLPNCKTVDIGPGLFYLQEDNPDLIGSEIARWLPAL
B5: DhaA.H272Q: DhaA mutant, His272 replaced with Gln (protein, UniProt P0A3G2 1-293, looked up, variant H272Q)
Haloalkane dehalogenase: MSEIGTGFPFDPHYVEVLGERMHYVDVGPRDGTPVLFLHGNPTSSYLWRNIIPHVAPSHRCIAPDLIGMGKSDKPDLDYFFDDHVRYLDAFIEALGLEEVVLVIHDWGSALGFHWAKRNPERVKGIACMEFIRPIPTWDEWPEFARETFQAFRTADVGRELIIDQNAFIEGALPKCVVRPLTEVEMDHYREPFLKPVDREPLWRFPNELPIAGEPANIVALVEAYMNWLHQSPVPKLLFWGTPGVLIPPAEAARLAESLPNCKTVDIGPGLQYLQEDNPDLIGSEIARWLPAL
B6: DhaA.H272F YM: DhaA.H272F based mutant with Y273M (protein, UniProt P0A3G2 1-293, looked up, variant H272F Y273M)
Haloalkane dehalogenase: MSEIGTGFPFDPHYVEVLGERMHYVDVGPRDGTPVLFLHGNPTSSYLWRNIIPHVAPSHRCIAPDLIGMGKSDKPDLDYFFDDHVRYLDAFIEALGLEEVVLVIHDWGSALGFHWAKRNPERVKGIACMEFIRPIPTWDEWPEFARETFQAFRTADVGRELIIDQNAFIEGALPKCVVRPLTEVEMDHYREPFLKPVDREPLWRFPNELPIAGEPANIVALVEAYMNWLHQSPVPKLLFWGTPGVLIPPAEAARLAESLPNCKTVDIGPGLFMLQEDNPDLIGSEIARWLPAL
B7: DhaA.H272G: DhaA mutant, His272 replaced with Gly (protein, UniProt P0A3G2 1-293, looked up, variant H272G)
Haloalkane dehalogenase: MSEIGTGFPFDPHYVEVLGERMHYVDVGPRDGTPVLFLHGNPTSSYLWRNIIPHVAPSHRCIAPDLIGMGKSDKPDLDYFFDDHVRYLDAFIEALGLEEVVLVIHDWGSALGFHWAKRNPERVKGIACMEFIRPIPTWDEWPEFARETFQAFRTADVGRELIIDQNAFIEGALPKCVVRPLTEVEMDHYREPFLKPVDREPLWRFPNELPIAGEPANIVALVEAYMNWLHQSPVPKLLFWGTPGVLIPPAEAARLAESLPNCKTVDIGPGLGYLQEDNPDLIGSEIARWLPAL
B8: DhaA.H272A: DhaA mutant, His272 replaced with Ala (protein, UniProt P0A3G2 1-293, looked up, variant H272A)
Haloalkane dehalogenase: MSEIGTGFPFDPHYVEVLGERMHYVDVGPRDGTPVLFLHGNPTSSYLWRNIIPHVAPSHRCIAPDLIGMGKSDKPDLDYFFDDHVRYLDAFIEALGLEEVVLVIHDWGSALGFHWAKRNPERVKGIACMEFIRPIPTWDEWPEFARETFQAFRTADVGRELIIDQNAFIEGALPKCVVRPLTEVEMDHYREPFLKPVDREPLWRFPNELPIAGEPANIVALVEAYMNWLHQSPVPKLLFWGTPGVLIPPAEAARLAESLPNCKTVDIGPGLAYLQEDNPDLIGSEIARWLPAL
B9: DhaA.H272F H11: first generation DhaA.H272F mutant with K175M and C176G (protein, UniProt P0A3G2 1-293, looked up, variant K175M C176G H272F)
Haloalkane dehalogenase: MSEIGTGFPFDPHYVEVLGERMHYVDVGPRDGTPVLFLHGNPTSSYLWRNIIPHVAPSHRCIAPDLIGMGKSDKPDLDYFFDDHVRYLDAFIEALGLEEVVLVIHDWGSALGFHWAKRNPERVKGIACMEFIRPIPTWDEWPEFARETFQAFRTADVGRELIIDQNAFIEGALPMGVVRPLTEVEMDHYREPFLKPVDREPLWRFPNELPIAGEPANIVALVEAYMNWLHQSPVPKLLFWGTPGVLIPPAEAARLAESLPNCKTVDIGPGLFYLQEDNPDLIGSEIARWLPAL
B10: BlaZ.N170Q (protein, UniProt P00807 25-281, looked up, variant N170Q)
Beta-lactamase: KELNDLEKKYNAHIGVYALDTKSGKEVKFNSDKRFAYASTSKAINSAILLEQVPYNKLNKKVHINKDDIVAYSPILEKYVGKDITLKALIEASMTYSDNTANNKIIKEIGGIKKVKQRLKELGDKVTNPVRYEIELNYYSPKSKKDTSTPAAFGKTLNKLIANGKLSKEQKKFLLDLMLNNKSGDTLIKDGVPKDYKVADKSGQAITYASRNDVAFVYPKGQSEPIVLVIFTNKDNKSDKPNDKLISETAKSVMKEF

Experiments:
[1] = pH-indicator dye assay of hydrolysis of Cl-alkanes by DhaA (WT or mutant); assay type: biochemical; conditions: 0.1 mg/ml of enzyme, 10 mM substrate, pH 7.0-8.2
Source text: To study the effect of a point mutation on the activity of DhaA (WT or mutant) hydrolysis of Cl-alkanes, a pH-indicator dye system as described by Holloway et al. (1998) was employed.

[2] = Thermostability analysis of purified DhaA mutants (residual labeling activity, FP); assay type: physicochemical; conditions: for thermostability (residual activity): 60 minute incubations at various temperature
Procedure: The thermostability profiles of the DhaA mutants were determined by measuring the residual activity of the purified proteins following 15, 30 or 60 minute incubations at 4, 22, 30, 37, 42, 50 or 60° C. The FP assay was performed at room temperature (about 25° C.). […] For each clone, the labeling rate (slope of the linear range) was calculated for each condition. The rate observed following a 15 minute incubation at 4° C. was arbitrarily assigned as 100% activity. The residual activity (%) was calculated for each condition. To determine stability, for each incubation time, the % of residual activity was plotted against the incubation temperatures. To calculate half-life, for each incubation temperature, the % of residual activity was plotted against the incubation time. The time where 50% activity was lost was extrapolated from the graph.

[3] = DhaA capture using immobilized biotin chloroalkane substrates (streptavidin plates, ELISA-type); assay type: binding; conditions: for reaction with immobilized biotin-PEG4-14-Cl: titration
Procedure: Using an excess of substrate (about 2 μmol), the plates could bind approximately 75 μmol of biotin per well. […] Reactions between immobilized substrate and mutant DhaAs were performed using purified GST-DhaA-Flag fusions. Various concentrations of protein (100 μL; diluted in PBSTB) were incubated with immobilized substrate for various times at 25° C., and the reactions were stopped by emptying the plates and washing 4× with PBST. To detect bound DhaA, 100 μL anti-GST-HRP (Amersham) was added to each well at a 1:10,000 dilution (in PBSTB) and the plates incubated for 1 hour at 25° C.

[4] = assay type: binding; conditions: biotin-PEG4-14-Cl substrate
[5] = Precipitation of DhaA.WT and mutants with (NH4)2SO4; assay type: physicochemical; conditions: 2 hours, 4° C.
Procedure: Aliquots of the supernatant obtained from E. coli expressing DhaA (WT or one of the mutants) were treated with increasing concentrations of (NH4)2SO4. The proteins were exposed to each (NH4)2SO4 concentration for 2 hours (4° C.), pelleted by centrifugation, dialyzed overnight against buffer A, and resolved on SDS-PAGE.

[6] = In vivo labeling of DhaA mutants expressed in CHO-K1 cells (cell-to-gel analysis); assay type: cell-based; conditions: 5 μM substrate
Procedure: (§1) Proteins (2-10 μl/lane) were resolved on SDS-PAGE (4-20% gradient gels).

[7] = In vivo stability of DhaA mutants in transiently transfected CHO-K1 cells; assay type: cell-based; conditions: 12, 24 and 48 hours post-transfection
Procedure: as §1

[8] = MagneGST assay
Procedure: Bacterial colonies were picked into 96-well plates containing LB+Amp and incubated with shaking at 30° C. The cultures were diluted 1:20 into 96 well plates containing fresh TB medium, Amp and 0.1 mM IPTG. The plates were incubated at 30° C. with shaking overnight. The 96 well plates containing the IPTG induced cultures were centrifuged and supernatants removed. DhaA mutants were normalized for protein concentration by saturating protein capture on MagneGST™ PMPs. […] The plates were shaken at about 900 rpm for 10 minutes at room temperature. The particles were washed three times with PBST using a MagnaBot® 96 magnetic separation device. The wash solution was removed and MagneGST™ elution solution was added and the plates were allowed to shake at room temperature (about 900 rpm for 5 minutes). Supernatants were transferred to a new, flat bottom, transparent 96 well plate and the fluorescence intensity was measured using an excitation wavelength at 550 nm and an emission wavelength at 580 nm.
Four colonies at random of each identified hit were inoculated into 200 μL LB+Amp and grown overnight at 30° C. in flat bottom 96 well plates. Overnight cultures were diluted 1:50 into 200 μL TB ampicillin supplemented with 0.1 mM IPTG and grown overnight at 30° C. and 37° C. Induced cultures were re-assayed using the MagneGST™ based screen.

[9] = Hydrolysis of FAP by GST-BlaZ (WT or mutants); assay type: biochemical; conditions: up to 60 minutes of co-incubation
Procedure: The chromogenic substrate 6-β-[(Furylacryloyl)amido]penicillanic acid triethylamine salt (FAP) was purchased from Calbiochem (La Jolla, Calif.). […] All assays were performed at 25° C. in 0.1 M potassium phosphate buffer at pH 6.8.

Row | Molecule | thermostability (residual activity) [2] | signal relative to the parental clones [4] | (NH4)2SO4 concentration that precipitates the protein [5] | other results
1 | B1 | – | – | – | activity with 1-Cl-butane [1]: 5 units/mg of protein
2 | B2 | relatively unstable at temperatures above 30 °C | significantly improved | – | reaction with immobilized biotin-PEG4-14-Cl [3]: react most efficiently
3 | B3 | relatively unstable at temperatures above 30 °C | significantly improved | – | –
4 | B4 | stable up to temperatures of 40 °C | – | – | –
5 | B5 | – | – | 10% | –
6 | B6 | relatively unstable at temperatures above 30 °C | significantly improved | – | reaction with immobilized biotin-PEG4-14-Cl [3]: react most efficiently
7 | B7 | – | – | 10% | –
8 | B8 | – | – | 10% | –
9 | B9 | retained significant labeling activity following incubation as high as 50 °C | – | – | half-life ([2]; at 50° C.): 58 min; in vivo labeling performance compared to parent DhaA.H272F [6]: superior performance characteristics; reaction with immobilized biotin substrates ([3]; all biotin substrates tested): reacted poorly; production of active protein (fluorescent signal after labeling) [7]: more active protein after 48 hours; signal relative to the respective parents [8]: considerably higher signal
10 | B10 | – | – | – | hydrolysis of FAP [9]: could not be detected
